Reference: patent publication US20240091260A1

Biological target: PRAME … (ALY) peptide in complex with HLA-A*0201 (HLA-A2) (human)
Assay: cell-based or functional assay

Substance: PRAME mTCRCAR (chimeric antigen receptor with an scFv from Pr20, IgG4 hinge, 4-1BB costimulatory and CD3zeta signaling domains), on human T cells
- cell death of neuroblastoma cells (SK-N-SH) with CD8+ CAR T cells at 24 hours: 98%
